This is an account of results in patent US20200190192A1 (SUTRO BIOPHARMA, published 2020).

Assay [1] addresses T1, human Tim-3 expressed on the cell surface (human, UniProt Q8TDQ0 22-301).
T1 construct: also called hTim-3; Human Tim-3 (CHO)
The experiment in a line: cell binding, CHO-human Tim-3 cells.

Assay [2] addresses T2, cynomolgus Tim-3 expressed on CHO cells (cynomolgus monkey).
T2 construct: also called cTim-3; Cyno Tim-3 (CHO)
T2 chain: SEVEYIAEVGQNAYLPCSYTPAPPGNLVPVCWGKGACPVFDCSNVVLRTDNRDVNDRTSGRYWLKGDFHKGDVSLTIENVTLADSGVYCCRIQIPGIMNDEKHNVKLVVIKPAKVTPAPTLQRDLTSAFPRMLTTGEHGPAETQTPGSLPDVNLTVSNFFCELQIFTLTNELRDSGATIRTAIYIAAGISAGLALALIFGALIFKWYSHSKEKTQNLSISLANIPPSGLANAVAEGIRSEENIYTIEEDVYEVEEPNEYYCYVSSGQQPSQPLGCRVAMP
The experiment in a line: cell binding, CHO-cyno Tim-3 cells.

In assay [3] the target is T3, human Tim-3 (Biacore analyte; TIM-3-Fc or TIM-3-HIS, not said which) (human, UniProt Q8TDQ0 22-202).
T3 construct: also called TIM-3 antigen; not shown: Fc or HIS tag
The experiment in a line: kinetics; method and analyte not given.

Assay [4] concerns the target T4, recombinant human Tim-3-Fc (R&D Systems, 2365-TM) (human, UniProt Q8TDQ0 22-202, biotinylated in the Galectin-9 competition ELISA (sites not given)).
T4 construct: Bought protein; also called huTim-3-Fc; biotinylated Tim-3-Fc; not shown: Fc of the bought fusion protein
The experiment in a line: ELISA, coated human Tim-3-Fc. A general note: An ELISA detects its analyte on a solid surface through an enzyme-linked reagent.

The target of assay [5] is T4, recombinant human Tim-3-Fc (R&D …). The experiment in a line: competition ELISA, biotin-Tim-3-Fc vs coated Galectin-9.
For assay [6] the target is unchanged. The experiment in a line: SPR Biacore, human Tim-3-Fc.
The target in assay [7] is T5, recombinant cynomolgus Tim-3-Fc (R&D Systems, 7914-TM) (cynomolgus monkey).
T5 construct: Bought protein; also called cyTim-3-Fc; Cyno Tim-3-Fc; not shown: Fc of the bought fusion protein
T5 chain: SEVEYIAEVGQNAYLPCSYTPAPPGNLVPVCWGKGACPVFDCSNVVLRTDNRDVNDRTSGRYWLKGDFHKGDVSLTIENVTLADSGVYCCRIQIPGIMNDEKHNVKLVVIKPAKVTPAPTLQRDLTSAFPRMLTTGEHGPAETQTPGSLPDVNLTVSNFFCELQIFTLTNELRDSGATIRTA
The experiment in a line: ELISA, coated cyno Tim-3-Fc.

In assay [8] the target is T1, human Tim-3 expressed on the cell …. The experiment in a line: flow cytometry, CHO-human Tim-3 cells.
Assay [9] has the same target. The experiment in a line: cell binding (flow cytometry; cells not given).
Assay [10] addresses T3, human Tim-3 (Biacore analyte; TIM-3-Fc …). The experiment in a line: SPR Biacore, human Tim-3 (Fc or HIS not said). (SPR reads the build-up and loss of mass on a sensor chip optically.)
For assay [11], the target named is T4, recombinant human Tim-3-Fc (R&D …). The experiment in a line: AlphaLISA bridging: Tim-3-Fc acceptor beads + PD-1 donor beads (signal needs both).
In assay [12] the target is T1, human Tim-3 expressed on the cell …. The experiment in a line: flow cytometry, CHO-human Tim-3 cells. The source holds these as a separate data set. For orientation: In flow cytometry, cells or beads pass a laser one at a time.
In assay [13] the target is T6, biotinylated recombinant human PD-1 (AcroBiosystems) (human, UniProt Q15116 25-167, limits assumed, biotinylated (sites not given)).
T6 construct: Bought protein; also called biotinylated PD-1
The experiment in a line: competition, flow cytometry: biotin-PD-1 binding to CHO-human PD-L1 cells.

Assay [14] has as its target T2, cynomolgus Tim-3 expressed on CHO cells. The experiment in a line: flow cytometry, CHO-cyno Tim-3 cells.
Assay [15] deals with T7, human PD-1 expressed on CHO cells (human, UniProt Q15116 25-288).
T7 construct: also called hPD-1; CHO-hPD-1
The experiment in a line: flow cytometry, CHO-human PD-1 cells.

Assay [16] deals with T4, recombinant human Tim-3-Fc (R&D …). The experiment in a line: competition ELISA, biotin-Tim-3-Fc vs coated Galectin-9. This is another data set of the same source.
Assay [17] addresses T2, cynomolgus Tim-3 expressed on CHO cells. The experiment in a line: flow cytometry, CHO-cyno Tim-3 cells.
Assay [18] addresses T4, recombinant human Tim-3-Fc (R&D …). The experiment in a line: SPR Biacore, human Tim-3 Fc; KD estimated.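 Also: antibodies captured on an anti-FLAG sensor surface, Tim-3-Fc flowed over as analyte at 25 °C in HBS-EP+ buffer, rates fit with a 1:1 Langmuir model.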
The target is the same in assay [19]. The experiment in a line: competition ELISA, biotin-Tim-3-Fc vs coated Galectin-9. This is another data set of the same source.
The target in assay [20] is T1, human Tim-3 expressed on the cell …. The experiment in a line: flow cytometry, CHO-human Tim-3 cells. The source holds these as a separate data set.
In assay [21] the target is T2, cynomolgus Tim-3 expressed on CHO cells. The experiment in a line: flow cytometry, CHO-cyno Tim-3 cells.
Assay [22] addresses T4, recombinant human Tim-3-Fc (R&D …). The experiment in a line: SPR Biacore, human Tim-3 Fc.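 Also: antibodies captured on an anti-FLAG sensor surface, Tim-3-Fc flowed over as analyte at 25 °C in HBS-EP+ buffer, rates fit with a 1:1 Langmuir model.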
In assay [23] the target is T1, human Tim-3 expressed on the cell …. The experiment in a line: flow cytometry, activated human CD4+ T cells.

Numbering of substitutions follows the chain as printed. Read-outs that look alike come from different tables or passages of the source.

B1: Mouse hybridoma clone 22E11 (antibody, V domains shown)
VH: QVQLKESGPDLVAPSQSLSITCTVSGFSLTSYGVHWVRQPPGKGLEWLVVIWSDGSTTYNSALKSRLTISKDNSKSQVFLKMNSLQTDDTAMYYCARQGGYRYDDAMDYWGQGTSVAVSS
VL: DIVLTQSPASLAVSLGQRATISCKASQSVDYDGNSYVNWYQQKPGQPPKLLIYAASNLESGIPARFSGSGSGTDFTLNIHPVEEEDAATYYCQQSNEDPYTFGGGTKLEIK
notes: Mouse antibody; also called m22E11; 250.180.2.22E11
As for B1, the binding result in assay [1] is given as “binds”. For the same molecule, in assay [2], the binding result was “binds”. In assay [3], this molecule had a Kd of 1.5 nM, a koff of 0.000334 s⁻¹ and a kon of 223000 M⁻¹ s⁻¹.

B2: Mouse hybridoma clone 2D5 (antibody, V domains shown)
VH: EVQLQQSGPELVKPGTSMKISCRASGYPFIGYTMNWVKQSHGGNLEWIGLINPYNGITTYNQKFKGRATLSVDTSSTIAYMELLSLTSDDSAEYYCARSFFYGSSNDWLVYWGQGTLVTVSA
VL: DVLMTQTPLSLPVSLGDQASISCRSSQSIVHTNGNTYLEWYLQKPGQSPKLLIYKVSNRFSGVPDRFSGSGSGTDFTLKISRVEAEDLGVYYCFQGSHVPWTFGGGTELEIK
notes: Mouse antibody; also called 421.51.2.2D5.5E9
Consider B2, for which the binding result in assay [1] is recorded as “binds”. Moreover, the binding result in assay [2] is “no binding”. In [3], the Kd was determined as 0.431 nM, the koff came out at 0.000166 s⁻¹ and the kon worked out at 386000 M⁻¹ s⁻¹.

B3: SRP1497-A05 (antibody, V domains shown)
VH: EVQLVESGGGLVQPGGSLRLSCAASGFNISNYAIHWVRQAPGKGLEWVADITPDGGYTDYADSVKDRFTISADTSKNTAYLQMNSLRAEDTAVYYCARGYVYRMWDSFDYWGQGTLVTVSS
VL: not shown
notes: IgG with trastuzumab LC; HIS- and FLAG-tagged
Turning to B3, the results for the EC50 in assay [4] and in assay [7] were 0.24 nM and 6.19 nM, respectively. Moreover, the IC50 in assay [5] is 1.1 nM. For the same molecule, the Kd in [6] stood at 2.27 nM; in [8], 0.5 nM; in assay [9] it was 5.6 nM; in assay [10], 64.7 nM. Also, the koff was determined as 0.000458 s⁻¹ in assay [6] and 0.0219 s⁻¹ in assay [10]. The values for the kon in assay [6] and in assay [10] were 202000 M⁻¹ s⁻¹ and 338000 M⁻¹ s⁻¹, respectively.

B4: 1353-G10-scFv × 1649-A01-Fab (bispecific antibody, V domains shown)
VH 1: EVQLVQSGAEVKKPGASVKVSCKASGYRFPHYGISWVRQAPGQGLEWMGWISAYNGNTNYAQKLQGRVTMTTDTSTNTAYMELRSLRSDDTAVYYCARDVDYGTGSGYWGQGTLVTVSS
VL 1: SYELTQPPSVSVSPGQTARITCSGDALPKQYAYWYQQKPGQAPVMVIYKDTERPSGIPERFSGSSSGTKVTLTISGVQAEDEADYYCQSADNSITYRVFGGGTKVTVL
VH 2: B3 VH with N31R, A33Y, D50G, D54V, G55R, D59E, F108Y
VL 2: not shown
notes: scFv-Fc × Fab bi-specific; also called Sample C; protein sample C
For B4, in [11], the EC50 came to 0.05 nM. Further, the Kd in [12] turned out to be 4.4 nM; in assay [14], 29 nM; in [15], 1.3 nM. Further, in assay [13], the IC50 is 11 nM.

B5: SRP1649-A01 (antibody, V domains shown)
VH: B3 VH with N31R, A33Y, D50G, D54V, G55R, D59E, F108Y
VL: not shown
notes: as for B3
Turning to B5, the IC50 in assay [16] was found to be 0.26 nM. Also, in assay [17], the Kd amounted to 0.5 nM. In assay [8], the affinity, expressed as Kd, was 0.4 nM. For the same molecule, in assay [10], the Kd was 17.4 nM, the koff is 0.00117 s⁻¹ and the kon came to 67100 M⁻¹ s⁻¹.

B6: SRP1497-A02 (antibody, V domains shown)
VH: B3 VH with Q13R, D66G
VL: not shown
notes: as for B3
As for B6, the EC50 is 0.34 nM in assay [4] and 13.7 nM in assay [7]. Also, in assay [5], the IC50 turned out to be 1 nM. For the same molecule, the Kd turned out to be 2.95 nM in assay [6] and 1.54 nM in [9]. Moreover, the koff in assay [6] was 0.000544 s⁻¹. Moreover, the kon in [6] came out at 185000 M⁻¹ s⁻¹.

B7: SRP1649-F06 (antibody, V domains shown)
VH: B3 VH with S30G, D54G, G55Q, D59E, F108Y
VL: not shown
notes: as for B3
As to B7, in assay [16], the IC50 was 0.63 nM. Also, the Kd in [17] is 5.6 nM. The molecule also displayed a Kd in assay [8] of 0.2 nM. In assay [10], this molecule registered a Kd of 17.3 nM, a koff of 0.00393 s⁻¹ and a kon of 227000 M⁻¹ s⁻¹.

B8: SRP1497-A01 (antibody, V domains shown)
VH: B3 VH with D66G
VL: not shown
notes: IgG with trastuzumab LC, cell-free expressed; constructs were HIS- and FLAG-tagged
With B8, the EC50 in assay [4] was 0.3 nM. Also, the IC50 in assay [5] is 0.8 nM. Besides, in assay [6], the Kd was 2.15 nM, the dissociation rate constant (koff) was determined as 0.000425 s⁻¹ and the kon was 197000 M⁻¹ s⁻¹. The EC50 in assay [7] worked out at 22.6 nM. Moreover, the Kd in assay [9] amounted to 1.17 nM.

B9: h22E11-VK4-1 × h22E11-VH3-23 (antibody, V domains shown)
VH: EVQLLESGGGLVQPGGSLRLSCAVSGFSLTSYGVHWVRQAPGKGLEWLVVIWSDGSTTYNDSVKGRFTISKDNSKNTVYLQMNSLRAEDTAVYYCARQGGYRYDDAMDYWGQGTLVTVSS
VL: DIVLTQSPDSLAVSLGERATINCKASQSVDYDGNSYVNWYQQKPGQPPKLLIYAASNLESGVPDRFSGSGSGTDFTLTISSLQAEDVAVYYCQQSNEDPYTFGQGTKVEIK
notes: Humanized m22E11
With B9, the Kd is 5 nM in [18], 0.9 nM in assay [20], 4.6 nM in [21] and 0.9 nM in assay [23]. Further, the IC50 in assay [19] worked out at 0.67 nM. Also, the koff in assay [22] was 0.000875 s⁻¹.

B10: h22E11-VK3-11 × h22E11-5-IgG-HC (antibody, V domains shown)
VH: B9 VH with L5V, D61S, S62A, V63L, G65S, S74A, T77S
VL: EIVLTQSPATLSLSPGERATLSCKASQSVDYDGNSYVNWYQQKPGQAPRLLIYAASNLESGIPARFSGSGSGTDFTLTISSLEPEDFAVYYCQQSNEDPYTFGQGTKVEIK
notes: Humanized m22E11
B10: the Kd was 5.9 nM in assay [18], 0.8 nM in assay [20], 5.3 nM in [21] and 1.1 nM in assay [23]. In addition, the half-maximal inhibitory concentration (IC50) in [19] came out at 0.64 nM. In addition, in assay [22], the koff was 0.00104 s⁻¹.

B11: h22E11-5-IgG-LC × h22E11-5-IgG-HC (antibody, V domains shown)
VH: B9 VH with L5V, D61S, S62A, V63L, G65S, S74A, T77S
VL: B10 VL with A9G, N38A, A64D, S81R
notes: Humanized m22E11; also called h22E11-5 IgG (lot 2)
In the case of B11, the Kd in [18] is 6.8 nM; in assay [20], 1 nM. Also, the IC50 in [19] amounted to 0.77 nM. The koff in assay [22] stood at 0.0011 s⁻¹.

By Kd is commonly meant the constant that tells how readily two partners part at equilibrium. As usually defined, the koff is the rate constant with which the complex falls apart. In general, kon refers to a measure of how fast the partners come together. As usually defined, the EC50 is the concentration giving half of the maximal effect. As a reminder, the IC50 is the point on the concentration scale where inhibition reaches its midpoint.
